Patent publication US20070172423A1, “Composition and method for modulating vasculogenesis for angiogenesis” (priority 1998, published 2007)

Assays:
[1] = tested on: bovine aorta endothelial cells (BAEC); test: Cell migration assay, BAEC; format: cell-based; settings: wounded monolayer, 20 hours, serum-free medium
Method: Cell migration assays were performed on growth arrested confluent HMVEC, BAEC or hSMC cells. Cell monolayers were wounded with a rubber policeman and washed with serum-free medium. Dishes were then incubated for 20 hours in serum-free medium containing VEGF165, PDGF-AA, (R&D Systems, Minneapolis USA) or PDGF-CC. Each assay included two dishes per condition and was repeated three times independently. Cells were photographed at 40× magnification, and migration percentage corresponding to the ratio between area of the cells and the total area of the wound (Biocom visiol@b 2000 version 4.52, San Diego). For HMVEC proliferation assay, cells were seeded in 96-well plates (5 wells per condition), and incubated with VEGF, PDGF-AA, or PDGF-CC (50 ng/ml) after serum starvation. After 7 days, viable cells were counted using the cell Titer-glo luminescent cell viability assay. For NIH-3T3 and hSMC proliferation assay, cells cultured in 96-well plates were serum-starved overnight, followed by treatment with growth factors at different concentrations. Two days later, cell numbers were counted and proliferation percentage calculated, using cells cultured in medium containing 10% serum as control. Aortic ring assay was performed as described 51. […] Aortic rings were analysed at day 9 of culturing. […]

[2] = biological target: T1, PDGFR-α (Mus musculus, UniProt P26618); test: PDGFR-α activation in infarct border region (immunoprecipitation, pTyr Western blot); format: in vivo; settings: compared to control, after coronary ligation
T1 construct: from tissue; host or cells: mouse heart, infarct border region

[3] = biological target: PDGF beta receptors (Homo sapiens, UniProt P09619); test: Binding of radiolabeled truncated PDGF-C to PAE-1 cells expressing PDGF beta receptors; parameters: expressed in transfected cells; host or cells: porcine aortic endothelial (PAE-1) cells; settings: 125I-labeled protein, on ice 90 minutes
Method: To assess the interactions between truncated PDGF-C and the PDGF alpha and beta receptors, truncated PDGF-C was tested for its capacity to bind to porcine aortic endothelial-1 (PAE-1) cells expressing PDGF alpha or beta receptors, respectively (Eriksson et al., EMBO J, 1992 11:543-550). The binding experiments were performed essentially as described in Heldin et al. (EMBO J, 1988 7:1387 1393). Five micrograms of truncated PDGF-C protein in ten microliters of sodium borate buffer was radiolabeled using the Bolton-Hunter reagent (Amersham) to a specific activity of 4×10^5 cpm/ng. Different concentrations of radiolabeled truncated PDGF-C, with or without added unlabeled protein, in binding buffer (PBS containing 1 mg/ml of bovine serum albumin) was added to the receptor expressing PAE-1 cells plated in 24-well culture dishes on ice for 90 minutes. After three washes with binding buffer, cell-bound ^125I-labeled PDGF-C was extracted by lysis of cells in 20 mM Tris-HCl, pH 7.5, 10% glycerol, 1% Triton X-100. The amount of cell-bound radioactivity was determined in a gamma-counter. Non-specific binding was estimated by including a 100-fold molar excess of truncated PDGF-C in some experiments. […] The binding was specific as radiolabeled PDGF-C was quantitatively displaced by a 100-fold molar excess of unlabeled protein.

[4] = tested on: aortic rings; test: Aortic ring assay; format: cell-based
Method: Cell migration assays were performed on growth arrested confluent HMVEC, BAEC or hSMC cells. Cell monolayers were wounded with a rubber policeman and washed with serum-free medium. Dishes were then incubated for 20 hours in serum-free medium containing VEGF165, PDGF-AA, (R&D Systems, Minneapolis USA) or PDGF-CC. Each assay included two dishes per condition and was repeated three times independently. Cells were photographed at 40× magnification, and migration percentage corresponding to the ratio between area of the cells and the total area of the wound (Biocom visiol@b 2000 version 4.52, San Diego). For HMVEC proliferation assay, cells were seeded in 96-well plates (5 wells per condition), and incubated with VEGF, PDGF-AA, or PDGF-CC (50 ng/ml) after serum starvation. After 7 days, viable cells were counted using the cell Titer-glo luminescent cell viability assay. For NIH-3T3 and hSMC proliferation assay, cells cultured in 96-well plates were serum-starved overnight, followed by treatment with growth factors at different concentrations. Two days later, cell numbers were counted and proliferation percentage calculated, using cells cultured in medium containing 10% serum as control. Aortic ring assay was performed as described 51. Briefly, one-millimeter long aortic rings were embedded in gels of rat tail interstitial collagen and cultured at 37° C., supplemented with different growth factors (50 ng/ml). Aortic rings were analysed at day 9 of culturing. Experiments included three explants per condition and were repeated at least twice. Aortic rings were photographed at 25× magnification.
Although PDGFR-α is expressed on endothelial cells (Edelberg et al., Journal of Clinical Investigation, 1998 102:837-43; Smits et al., Growth Factors, 1989 2:1-8; Bar et al., Endocrinology, 1989 124:1841-8; Beitz et al., Proc Natl Acad Sci USA, 1991 88:2021-5; Marx et al., J Clin Invest, 1994 93:131-9; Shinbrot et al., Dev. Dyn., 1994 199:169-175), little is known about the functional consequence of PDGFR-α signaling in these cells. […] We also tested the effect of PDGF-CC on cultured aortic rings, as this assay allows assessment of the outgrowth of microvessels from an intact vessel in vitro (Blacher et al., Angiogenesis, 2001 4:133-42). Results are graphically represented as the number of microvessels and the distance over which they grew out from the aortic ring. Each experiment included three explants per condition and was repeated at least twice. At day 9 after culturing, microvessels and the distance of their outgrowth were quantified and evaluated using Student's t test. In baseline conditions, only a small number of microvessels sprouted from the aortic rings—most of them over very short distances (0.25 mm from the aortic ring)—and only a small fraction (<5%) growing out over longer distances (>0.5 mm from the aortic ring, FIG. 41a). VEGF increased not only the number of sprouting microvessels (P<0.001 at all concentrations versus control), but also the distance over which they grew out (P<0.05 at all concentrations versus control; FIG. 41b,f). At 30 ng/ml, PDGF-CC increased the number of microvessels (P<0.001 versus control, FIG. 41e,g) and increased the distance of vessel outgrowth at 5 ng/ml (P<0.01 versus control, FIG. 41g). […] A similar bell-shaped dose-response relationship has been documented for other members of the VEGF/PDGF-superfamily (Jin et al., J Mol Neurosci, 2000 14:197-203). […]

T1 sequence (P26618 25-1089): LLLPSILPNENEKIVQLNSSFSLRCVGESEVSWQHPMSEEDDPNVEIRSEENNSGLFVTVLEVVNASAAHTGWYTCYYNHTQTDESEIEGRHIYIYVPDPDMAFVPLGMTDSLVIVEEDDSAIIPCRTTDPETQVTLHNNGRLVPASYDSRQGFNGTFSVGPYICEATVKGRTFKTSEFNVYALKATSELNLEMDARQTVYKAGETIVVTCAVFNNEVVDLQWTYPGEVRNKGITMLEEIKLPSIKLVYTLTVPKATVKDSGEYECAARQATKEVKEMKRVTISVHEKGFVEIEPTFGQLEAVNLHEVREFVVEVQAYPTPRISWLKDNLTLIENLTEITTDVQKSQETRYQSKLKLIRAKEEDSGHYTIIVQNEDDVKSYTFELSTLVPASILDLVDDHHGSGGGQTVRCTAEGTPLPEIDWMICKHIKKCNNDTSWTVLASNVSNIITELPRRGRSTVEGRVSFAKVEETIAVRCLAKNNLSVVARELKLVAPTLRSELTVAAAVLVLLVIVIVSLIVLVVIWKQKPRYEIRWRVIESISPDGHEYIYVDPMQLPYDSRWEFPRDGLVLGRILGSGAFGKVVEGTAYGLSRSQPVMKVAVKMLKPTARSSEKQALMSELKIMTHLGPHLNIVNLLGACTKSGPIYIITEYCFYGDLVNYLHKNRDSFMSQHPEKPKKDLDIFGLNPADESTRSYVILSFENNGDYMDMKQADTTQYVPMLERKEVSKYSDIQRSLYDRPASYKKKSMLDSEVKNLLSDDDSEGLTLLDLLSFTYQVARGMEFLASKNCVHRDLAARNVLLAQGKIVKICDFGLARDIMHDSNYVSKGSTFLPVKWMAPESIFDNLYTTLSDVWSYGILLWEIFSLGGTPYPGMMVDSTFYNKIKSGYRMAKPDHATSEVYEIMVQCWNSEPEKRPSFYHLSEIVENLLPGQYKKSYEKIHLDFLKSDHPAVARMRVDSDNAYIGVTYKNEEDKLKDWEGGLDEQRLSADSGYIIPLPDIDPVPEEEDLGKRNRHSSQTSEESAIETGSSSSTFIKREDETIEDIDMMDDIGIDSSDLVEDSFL
PDGF beta receptors, sequence (P09619 33-1106): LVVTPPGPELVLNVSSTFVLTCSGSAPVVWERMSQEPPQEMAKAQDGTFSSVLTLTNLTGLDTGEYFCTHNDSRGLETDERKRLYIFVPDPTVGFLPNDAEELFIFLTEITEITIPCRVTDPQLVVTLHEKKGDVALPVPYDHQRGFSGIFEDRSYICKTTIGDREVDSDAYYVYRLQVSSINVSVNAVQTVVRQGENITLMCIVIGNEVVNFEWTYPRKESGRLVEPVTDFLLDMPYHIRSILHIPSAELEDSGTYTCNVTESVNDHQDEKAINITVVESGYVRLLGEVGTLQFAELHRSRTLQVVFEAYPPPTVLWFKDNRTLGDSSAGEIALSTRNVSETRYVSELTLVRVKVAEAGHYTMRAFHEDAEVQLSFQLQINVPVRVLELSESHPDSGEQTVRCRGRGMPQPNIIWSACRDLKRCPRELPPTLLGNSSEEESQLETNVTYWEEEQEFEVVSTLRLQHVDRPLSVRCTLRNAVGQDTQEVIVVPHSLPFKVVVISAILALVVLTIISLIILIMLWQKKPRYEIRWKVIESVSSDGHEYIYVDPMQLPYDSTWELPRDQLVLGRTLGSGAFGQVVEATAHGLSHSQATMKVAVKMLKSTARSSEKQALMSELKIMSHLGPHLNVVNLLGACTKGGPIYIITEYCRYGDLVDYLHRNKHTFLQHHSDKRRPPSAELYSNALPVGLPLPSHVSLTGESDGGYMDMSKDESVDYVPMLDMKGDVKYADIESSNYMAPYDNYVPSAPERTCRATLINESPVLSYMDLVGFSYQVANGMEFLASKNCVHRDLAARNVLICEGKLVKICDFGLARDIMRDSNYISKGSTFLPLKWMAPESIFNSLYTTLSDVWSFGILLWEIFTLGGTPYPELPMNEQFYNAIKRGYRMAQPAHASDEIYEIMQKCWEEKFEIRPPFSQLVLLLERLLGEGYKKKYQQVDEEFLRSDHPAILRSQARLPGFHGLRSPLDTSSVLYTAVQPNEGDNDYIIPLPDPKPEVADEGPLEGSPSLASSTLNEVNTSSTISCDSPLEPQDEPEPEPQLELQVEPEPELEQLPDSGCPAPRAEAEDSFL

B1: PDGF-CC: recombinant human PDGF-CC core domain homodimer, residues 230-345 of full-length PDGF-C (SEQ ID NO:40), produced in baculovirus infected insect cells (protein)
chain: GRKSRVVDLNLLTEEVRLYSCTPRNFSVSIREELKRTDTIFWPGCLLVKRCGGNCACCLHNCNECQCVPSKVTKKYHEVLQLRPKTGVRGLHKSLTDVALEHHEECDCVCRGSTGG
modifications: homodimer; PDGF-C core domain
migration of BAEC [1]: enhanced
amount of active PDGFR-α in the border region [2]: increased
binding to beta receptor expressing cells [3]: not
distance of vessel outgrowth ([4]; 5 ng/ml, day 9, versus control): increased
number of microvessels ([4]; 30 ng/ml, day 9, versus control): increased
concentration of maximal stimulation of perivascular fibroblast-like cells ([4]; FIG. 41 legend): 5 to 10 ng/mL
concentration of maximum effect on microvessel sprouting ([4]; bell-shaped dose-response, less potent at 50 ng/ml): 30 ng/mL
number and emigration of perivascular fibroblast-like cells ([4]; day 9, versus control): significantly increased
